The text below walks through data of publication doi:10.1101/2022.11.10.515925 (bioRxiv, 2022).

First the molecules themselves.
B1: KIF20A 25-665 (dimeric motor construct) (domain or fragment, mouse, UniProt P97329 25-665, looked up)
chain: ESTAADLRSVVRKDLLSDCSVISASLEDKQALLEDTSEKVKVYLRIRPFLTSELDRQEDQGCVCIENTETLVLQAPKDSFALKSNERGVGQATHKFTFSQIFGPEVGQVAFFNLTMKEMVKDVLKGQNWLIYTYGVTNSGKTYTIQGTSKDAGILPQSLALIFNSLQGQLHPTPDLKPLLSNEVIWLDSKQIRQEEMKKLSLLIGGLQEEELSTSVKKRVHTESRIGASNSFDSGVAGLSSTSQFTSSSQLDETSQLWAQPDTVPVSVPADIRFSVWISFFEIYNELLYDLLEPPSHQHKRQTLRLCEDQNGNPYVKDLNWIHVRDVEEAWKLLKVGRKNQSFASTHMNQQSSRSHSIFSIRILHLQGEGDIVPKISELSLCDLAGSERCKHQKSGERLKEAGNINTSLHTLGRCIAALRQNQQNRSKQNLIPFRDSKLTRVFQGFFTGRGRSCMIVNVNPCASTYDETLHAAKFSALASQLVHAPPVHLGIPSLHSFIKKHSPQVGPGLEKEDKADSDLEDSPEDEADVSVYGKEELLQVVEAMKALLLKERQEKLQLEIQLREEICNEMVEQMQQREQWCSERLDNQKELMEELYEEKLKILKESLTTFYQEQIQERDEKIEELETLLQEAKQQPAAQQ
B2: KIF20A 55-665 Δ(518-549) (dimeric motor, shortened neck linker) (domain or fragment, mouse, UniProt P97329 55-665, looked up)
chain: ALLEDTSEKVKVYLRIRPFLTSELDRQEDQGCVCIENTETLVLQAPKDSFALKSNERGVGQATHKFTFSQIFGPEVGQVAFFNLTMKEMVKDVLKGQNWLIYTYGVTNSGKTYTIQGTSKDAGILPQSLALIFNSLQGQLHPTPDLKPLLSNEVIWLDSKQIRQEEMKKLSLLIGGLQEEELSTSVKKRVHTESRIGASNSFDSGVAGLSSTSQFTSSSQLDETSQLWAQPDTVPVSVPADIRFSVWISFFEIYNELLYDLLEPPSHQHKRQTLRLCEDQNGNPYVKDLNWIHVRDVEEAWKLLKVGRKNQSFASTHMNQQSSRSHSIFSIRILHLQGEGDIVPKISELSLCDLAGSERCKHQKSGERLKEAGNINTSLHTLGRCIAALRQNQQNRSKQNLIPFRDSKLTRVFQGFFTGRGRSCMIVNVNPCASTYDETLHAAKFSALASQLVHAPPVHLGIPDEADVSVYGKEELLQVVEAMKALLLKERQEKLQLEIQLREEICNEMVEQMQQREQWCSERLDNQKELMEELYEEKLKILKESLTTFYQEQIQERDEKIEELETLLQEAKQQPAAQQ
B3: KIF20A 1-665 (dimeric motor construct) (domain or fragment, mouse, UniProt P97329 1-665, looked up)
chain: MSHRILSPPAGLLSDEDVVDSPILESTAADLRSVVRKDLLSDCSVISASLEDKQALLEDTSEKVKVYLRIRPFLTSELDRQEDQGCVCIENTETLVLQAPKDSFALKSNERGVGQATHKFTFSQIFGPEVGQVAFFNLTMKEMVKDVLKGQNWLIYTYGVTNSGKTYTIQGTSKDAGILPQSLALIFNSLQGQLHPTPDLKPLLSNEVIWLDSKQIRQEEMKKLSLLIGGLQEEELSTSVKKRVHTESRIGASNSFDSGVAGLSSTSQFTSSSQLDETSQLWAQPDTVPVSVPADIRFSVWISFFEIYNELLYDLLEPPSHQHKRQTLRLCEDQNGNPYVKDLNWIHVRDVEEAWKLLKVGRKNQSFASTHMNQQSSRSHSIFSIRILHLQGEGDIVPKISELSLCDLAGSERCKHQKSGERLKEAGNINTSLHTLGRCIAALRQNQQNRSKQNLIPFRDSKLTRVFQGFFTGRGRSCMIVNVNPCASTYDETLHAAKFSALASQLVHAPPVHLGIPSLHSFIKKHSPQVGPGLEKEDKADSDLEDSPEDEADVSVYGKEELLQVVEAMKALLLKERQEKLQLEIQLREEICNEMVEQMQQREQWCSERLDNQKELMEELYEEKLKILKESLTTFYQEQIQERDEKIEELETLLQEAKQQPAAQQ
B4: KIF20A 55-665 (dimeric motor construct) (domain or fragment, mouse, UniProt P97329 55-665, looked up)
chain: ALLEDTSEKVKVYLRIRPFLTSELDRQEDQGCVCIENTETLVLQAPKDSFALKSNERGVGQATHKFTFSQIFGPEVGQVAFFNLTMKEMVKDVLKGQNWLIYTYGVTNSGKTYTIQGTSKDAGILPQSLALIFNSLQGQLHPTPDLKPLLSNEVIWLDSKQIRQEEMKKLSLLIGGLQEEELSTSVKKRVHTESRIGASNSFDSGVAGLSSTSQFTSSSQLDETSQLWAQPDTVPVSVPADIRFSVWISFFEIYNELLYDLLEPPSHQHKRQTLRLCEDQNGNPYVKDLNWIHVRDVEEAWKLLKVGRKNQSFASTHMNQQSSRSHSIFSIRILHLQGEGDIVPKISELSLCDLAGSERCKHQKSGERLKEAGNINTSLHTLGRCIAALRQNQQNRSKQNLIPFRDSKLTRVFQGFFTGRGRSCMIVNVNPCASTYDETLHAAKFSALASQLVHAPPVHLGIPSLHSFIKKHSPQVGPGLEKEDKADSDLEDSPEDEADVSVYGKEELLQVVEAMKALLLKERQEKLQLEIQLREEICNEMVEQMQQREQWCSERLDNQKELMEELYEEKLKILKESLTTFYQEQIQERDEKIEELETLLQEAKQQPAAQQ
B5: KIF20A 55-665 Δ(535-549) (dimeric motor, shortened neck linker) (domain or fragment, mouse, UniProt P97329 55-665, looked up)
chain: ALLEDTSEKVKVYLRIRPFLTSELDRQEDQGCVCIENTETLVLQAPKDSFALKSNERGVGQATHKFTFSQIFGPEVGQVAFFNLTMKEMVKDVLKGQNWLIYTYGVTNSGKTYTIQGTSKDAGILPQSLALIFNSLQGQLHPTPDLKPLLSNEVIWLDSKQIRQEEMKKLSLLIGGLQEEELSTSVKKRVHTESRIGASNSFDSGVAGLSSTSQFTSSSQLDETSQLWAQPDTVPVSVPADIRFSVWISFFEIYNELLYDLLEPPSHQHKRQTLRLCEDQNGNPYVKDLNWIHVRDVEEAWKLLKVGRKNQSFASTHMNQQSSRSHSIFSIRILHLQGEGDIVPKISELSLCDLAGSERCKHQKSGERLKEAGNINTSLHTLGRCIAALRQNQQNRSKQNLIPFRDSKLTRVFQGFFTGRGRSCMIVNVNPCASTYDETLHAAKFSALASQLVHAPPVHLGIPSLHSFIKKHSPQVGPGLDEADVSVYGKEELLQVVEAMKALLLKERQEKLQLEIQLREEICNEMVEQMQQREQWCSERLDNQKELMEELYEEKLKILKESLTTFYQEQIQERDEKIEELETLLQEAKQQPAAQQ

The data set concerns the molecule itself. The data set can be described thus: SEC-MALS. A general note: In gel filtration, larger molecules generally elute earlier.
One may read the stoichiometry N as a count of units in the complex or per binding partner. On to B1, for which the “stoichiometry N” value came out at 2.
B2: the “stoichiometry N” value amounted to 2.
In the case of B3 it was 2; in that of B4, 2; in that of B5, 2.
